B1: S2H97 IgG1 (antibody, V domains shown)
VH: QVRLVQSGAEVKKSGESLKISCKGSGYSFTSYWIGWVRQMPGKGLEWMGIIYPGDSDTRYSPSFQGQVTISADKSISTVYLQWSSLKASDTAMYYCARQWSHYTYDYYYWGQGTLVTISS
VL: QSVLTQPASVSGSPGQSITISCTGISSDVGGYNSVSWYQQHPGKAPKLMIYDVTNRPSGVSNRFSGSKSGNTASLTISGLQAEDEADYYCSSYTSSSTPPYVFGTGTKVSVL
B2: S2H97 Fab (Fab, V domains shown)
VH: B1 VH
VL: B1 VL
B3: S304 IgG1 (antibody, V domains shown)
VH: EVQLVESGGGLVQPGGSLRLSCAASGFTFSSYDMHWVRQTTGKGLEWVSTIGTAGDTYYPDSVKGRFTISREDAKNSLYLQMNSLRAGDTAVYYCARGDSSGYYYYFDYWGQGTLLTVSS
VL: DIQMTQSPSSLSAAVGDRVTITCRASQSIGSYLNWYQQKPGKAPKLLIYAASSLQSGVPSRFSGSGSGTDFTLTISSLQPEDFAIYYCQQSYVSPTYTFGPGTKVDIK
B4: S304 Fab (Fab, V domains shown)
VH: B3 VH
VL: B3 VL
B5: S2X35 IgG1 (antibody, V domains shown)
VH: QVQLVQSGAEVKKPGASVKVSCKASGYTFTNYGISWVRQAPGQGLEWMGWISAYKGNTNYAQKLQGRVTMTTDTSTSTAYMELRSLRSDDTAVYYCARPDYQVLGYDFWIGYYGMDVWGQGTTVIVSS
VL: QSVLTQPPSVSGAPGQRVTISCTGSSSNIGAGYDVHWYQQLPGTAPKLLIYGNTNRPSGVPDRFSGSKSGTSASLAITGLQAEDEADYYCQSYDSSLSGSEVVFGGGTKLTVL
B6: S2X35 Fab (Fab, V domains shown)
VH: B5 VH
VL: B5 VL
B7: S2E12 IgG1 (antibody, V domains shown)
VH: not shown
VL: DIVLTQTPGTLSLSPGERATLSCRASQSVSSSYLAWYQQKPGQAPRLLIYGASSRATGIPDRFSGSGSGTDFTLTISRLEPEDFAVYYCQQYVGLTGWTFGQGTKVEIK
B8: S2E12 Fab (Fab, V domains shown)
VH: not shown
VL: B7 VL
B9: S2D106 IgG1 (antibody, V domains shown)
VH: EVQLVQSGAEVKKPGSSVKVSCKASGGPFSSSAISWVRQAPGQGLEWMGGIIPMVGTANYAQKFQGRVTITADESTSTAYMELSSLRSEDTAVYYCARDSRYCSGGSCYSVWFDPWGQGTLVTVSS
VL: not shown
B10: S2D106 Fab (Fab, V domains shown)
VH: B9 VH
VL: not shown

The first test has as its target T1, SARS-CoV-2 RBD WT (for SPR binding assays) (SARS-CoV-2, Wuhan-Hu-1 (WT), UniProt P0DTC2). Description: SPR. A general note: SPR reads the build-up and loss of mass on a sensor chip optically.
As to B1, the Kd stood at 0.04 nM.
Same read-out and setting: the value for B2 was 0.04 nM.
On the same count and under the same terms, the value for B3 was 0.4 nM; that for B4 was 1 nM.
Same read-out and setting: next, B5: 0.06 nM; B6: 0.2 nM.
Regarding B7, the equilibrium dissociation constant (Kd) was determined as 0.7 nM.
The same measure, in the same setting: the value for B8 was 1.7 nM; that for B9 was 0.04 nM; that for B10 was 0.05 nM.

The next test addresses T1, SARS-CoV-2 RBD WT (for SPR binding …). Kind of test: cell-based or functional assay.
As for B1, the “IC50, neutralisation of authentic SARS-CoV-2 (SARS-CoV-2-Nluc) on Vero E6 cells” value (“IC50, neutralisation” below) was found to be 0.749 µg/mL and the “IC90, neutralisation of authentic SARS-CoV-2 (SARS-CoV-2-Nluc) on Vero E6 cells” value (from here on “IC90, neutralisation”) worked out at 3.29 µg/mL.
On to B3, for which the “IC50, neutralisation” value came to 14.4 µg/mL.
For the molecule B5, the “IC50, neutralisation” value stood at 0.179 µg/mL and the “IC90, neutralisation” value worked out at 0.593 µg/mL.
As to B7, the “IC50, neutralisation” value is 0.0045 µg/mL and the “IC90, neutralisation” value came to 0.014 µg/mL.
For B9 the same measures were 0.0068 µg/mL and 0.0236 µg/mL.

What is called Kd is the constant that tells how readily two partners part at equilibrium. Read a low Kd as a tighter complex.

(Values after paper PMC9282883 (Nature, 2021).)
